Biological target: human 26S proteasome (human) (UniProt P60900)

How did the Kd turn out when “K48 linked tetra-ubiquitin chains (from UniProt P0CG47 1-76)” was run?
The Kd was 239 nM.
